B1: MBP-TorsinA (human TorsinA residues 51-332, N-terminal MBP tag) (domain or fragment)
chain: GQKRSLSREALQKDLDDNLFGQHLAKKIILNAVFGFINNPKPKKPLTLSLHGWTGTGKNFVSKIIAENIYEGGLNSDYVHLFVATLHFPHASNITLYKDQLQLWIRGNVSACARSIFIFDEMDKMHAGLIDAIKPFLDYYDLVDGVSYQKAMFIFLSNAGAERITDVALDFWRSGKQREDIKLKDIEHALSVSVFNNKNSGFWHSSLIDRNLIDYFVPFLPLEYKHLKMCIRVEMQSRGYEIDEDIVSRVAEEMTFFPKEERVFSDKGCKTVFTKLDYYYDD
B2: TorsinA (human, residues 51-332) after cleavage of the MBP tag with 3C protease (domain or fragment)
chain: GQKRSLSREALQKDLDDNLFGQHLAKKIILNAVFGFINNPKPKKPLTLSLHGWTGTGKNFVSKIIAENIYEGGLNSDYVHLFVATLHFPHASNITLYKDQLQLWIRGNVSACARSIFIFDEMDKMHAGLIDAIKPFLDYYDLVDGVSYQKAMFIFLSNAGAERITDVALDFWRSGKQREDIKLKDIEHALSVSVFNNKNSGFWHSSLIDRNLIDYFVPFLPLEYKHLKMCIRVEMQSRGYEIDEDIVSRVAEEMTFFPKEERVFSDKGCKTVFTKLDYYYDD
B3: TorsinA H140N (human, residues 51-332) (domain or fragment)
chain: GQKRSLSREALQKDLDDNLFGQHLAKKIILNAVFGFINNPKPKKPLTLSLHGWTGTGKNFVSKIIAENIYEGGLNSDYVHLFVATLHFPNASNITLYKDQLQLWIRGNVSACARSIFIFDEMDKMHAGLIDAIKPFLDYYDLVDGVSYQKAMFIFLSNAGAERITDVALDFWRSGKQREDIKLKDIEHALSVSVFNNKNSGFWHSSLIDRNLIDYFVPFLPLEYKHLKMCIRVEMQSRGYEIDEDIVSRVAEEMTFFPKEERVFSDKGCKTVFTKLDYYYDD
B4: TorsinA K174A (human, residues 51-332) (domain or fragment)
chain: GQKRSLSREALQKDLDDNLFGQHLAKKIILNAVFGFINNPKPKKPLTLSLHGWTGTGKNFVSKIIAENIYEGGLNSDYVHLFVATLHFPHASNITLYKDQLQLWIRGNVSACARSIFIFDEMDAMHAGLIDAIKPFLDYYDLVDGVSYQKAMFIFLSNAGAERITDVALDFWRSGKQREDIKLKDIEHALSVSVFNNKNSGFWHSSLIDRNLIDYFVPFLPLEYKHLKMCIRVEMQSRGYEIDEDIVSRVAEEMTFFPKEERVFSDKGCKTVFTKLDYYYDD
B5: TorsinA K174E (human, residues 51-332) (domain or fragment)
chain: GQKRSLSREALQKDLDDNLFGQHLAKKIILNAVFGFINNPKPKKPLTLSLHGWTGTGKNFVSKIIAENIYEGGLNSDYVHLFVATLHFPHASNITLYKDQLQLWIRGNVSACARSIFIFDEMDEMHAGLIDAIKPFLDYYDLVDGVSYQKAMFIFLSNAGAERITDVALDFWRSGKQREDIKLKDIEHALSVSVFNNKNSGFWHSSLIDRNLIDYFVPFLPLEYKHLKMCIRVEMQSRGYEIDEDIVSRVAEEMTFFPKEERVFSDKGCKTVFTKLDYYYDD

Experiments:
[1] = molecular target: the molecule itself; assay: SEC
[2] = molecular target: the molecule itself; assay: negative-stain electron microscopy

Protein	binding result [1]	binding result [2]
B1	binds	
B2		binds
B3		binds
B4		binds
B5		binds

Source: doi:10.1101/567099 (bioRxiv, 2019)
